Measured values reported in patent US20140050738A1 (CANCER RESEARCH TECHNOLOGY, published 2014).

Tests used:
[1] = target: T1, recombinant human TACE ectodomain (Arg215-Arg651) (human, UniProt P78536 215-651); assay: cell-based or functional assay
[2] = target: T2, recombinant human TACE catalytic domain (Arg215-Val477-GlySer-His6) (human, UniProt P78536 215-477); assay: cell-based or functional assay
[3] = target: T1, recombinant human TACE ectodomain …; assay: inverted titration ELISA
[4] = target: T2, recombinant human TACE catalytic domain …; assay: inverted titration ELISA
[5] = target: T1, recombinant human TACE ectodomain …; assay: cell-based or functional assay; remark: listed apart in the source
[6] = target: T2, recombinant human TACE catalytic domain …; assay: cell-based or functional assay; remark: listed apart in the source
[7] = target: T1, recombinant human TACE ectodomain …; assay: SPR; ratio of the KD for the isolated catalytic domain to the KD for the ectodomain
Method: (§1) Results represent the mean values of blank-subtracted technical triplicates per concentration variable. All experiments were performed on a Biacore T100 (GE Healthcare) at 37° C. with a flow-rate of […]. Binding constants were calculated using Biacore T100 Evaluation Software (1:1 binding model; Rmax <200 RU; tc >1×10⁸; Chi²<0.5 RU².

[8] = target: T1, recombinant human TACE ectodomain …; assay: SPR (Biacore T100, 37 C); FAb amine-coupled to CM5 chip, titrated TACE injected; 1:1 model
Method: as §1

[9] = target: T2, recombinant human TACE catalytic domain …; assay: as above
Method: as §1

[10] = target: T1, recombinant human TACE ectodomain …; assay: inverted titration ELISA; ratio of the EC50 for the catalytic domain to the EC50 for the ectodomain
[11] = target: T1, recombinant human TACE ectodomain …; assay: competition ELISA: 100 nM immobilised TACE ectodomain pre-incubated with titrated D1(A12) FAb, then probed for N-TIMP-3 binding [panel A]
[12] = target: T1, recombinant human TACE ectodomain …; assay: SPR (Biacore T100, 37 C): D1(A12) FAb amine-coupled to a CM5 chip, TACE ectodomain injected (traces labelled 0.25 to 6 nM) [panel C, lower right]
Method: as §1

[13] = target: T2, recombinant human TACE catalytic domain …; assay: SPR (Biacore T100, 37 C): D1(A12) FAb amine-coupled to a CM5 chip, TACE catalytic domain injected (traces labelled 1 to 15 nM) [panel C, lower left]
Method: as §1

cell surface TACE = cell surface TACE (human, UniProt P78536 215-824); assay: cell-based or functional assay
cell surface TACE, sequence (P78536 215-824): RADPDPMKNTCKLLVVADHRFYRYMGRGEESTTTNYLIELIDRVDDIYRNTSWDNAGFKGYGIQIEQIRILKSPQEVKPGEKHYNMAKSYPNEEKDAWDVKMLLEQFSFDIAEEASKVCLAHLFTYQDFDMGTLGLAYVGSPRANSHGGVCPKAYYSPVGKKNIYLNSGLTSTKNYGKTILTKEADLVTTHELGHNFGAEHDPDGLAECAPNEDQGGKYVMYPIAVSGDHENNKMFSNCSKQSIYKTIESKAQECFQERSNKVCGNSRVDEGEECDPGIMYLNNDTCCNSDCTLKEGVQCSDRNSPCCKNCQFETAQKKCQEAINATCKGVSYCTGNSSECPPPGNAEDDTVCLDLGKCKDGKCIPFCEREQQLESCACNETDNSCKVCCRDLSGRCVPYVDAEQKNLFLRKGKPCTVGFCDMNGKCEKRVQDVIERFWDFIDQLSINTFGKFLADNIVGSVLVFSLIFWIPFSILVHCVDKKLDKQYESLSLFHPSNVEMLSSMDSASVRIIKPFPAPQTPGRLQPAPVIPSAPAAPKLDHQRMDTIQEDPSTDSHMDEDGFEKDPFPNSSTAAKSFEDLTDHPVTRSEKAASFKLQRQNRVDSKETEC

[14] = target: recombinant human TACE catalytic domain (Arg215-Val477-GlySer-His6) (human) (UniProt P78536); assay: cell-based or functional assay
recombinant human TACE catalytic domain (Arg215-Val477-GlySer-His6) (human), sequence (P78536 other isoform, or with tags, fused parts or gaps limits assumed): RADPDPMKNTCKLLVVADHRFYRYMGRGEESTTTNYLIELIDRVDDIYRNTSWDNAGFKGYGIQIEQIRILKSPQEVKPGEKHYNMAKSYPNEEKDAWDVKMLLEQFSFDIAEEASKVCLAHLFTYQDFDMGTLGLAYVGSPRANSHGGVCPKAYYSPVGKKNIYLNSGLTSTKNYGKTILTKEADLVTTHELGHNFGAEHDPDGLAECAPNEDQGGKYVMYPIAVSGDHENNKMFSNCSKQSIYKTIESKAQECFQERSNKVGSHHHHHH

[15] = target: recombinant human TACE ectodomain (Arg215-Arg651) (human) (UniProt P78536); assay: cell-based or functional assay
recombinant human TACE ectodomain (Arg215-Arg651) (human), sequence (P78536 215-651): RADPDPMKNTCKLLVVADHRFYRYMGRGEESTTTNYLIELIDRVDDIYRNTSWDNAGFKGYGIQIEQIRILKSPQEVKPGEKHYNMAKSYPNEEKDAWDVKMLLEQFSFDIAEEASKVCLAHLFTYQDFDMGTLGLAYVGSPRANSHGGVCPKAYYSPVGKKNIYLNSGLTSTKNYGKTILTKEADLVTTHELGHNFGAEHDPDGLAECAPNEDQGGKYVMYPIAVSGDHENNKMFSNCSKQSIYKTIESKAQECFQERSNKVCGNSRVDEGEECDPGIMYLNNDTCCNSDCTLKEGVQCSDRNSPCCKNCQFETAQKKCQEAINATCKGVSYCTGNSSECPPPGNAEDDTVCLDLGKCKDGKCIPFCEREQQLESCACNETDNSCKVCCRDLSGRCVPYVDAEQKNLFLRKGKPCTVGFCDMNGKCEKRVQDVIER

[16] = target: T1, recombinant human TACE ectodomain …; assay: SPR (Biacore T100, 37 C); N-TIMP-3 amine-coupled to CM5 chip, titrated TACE injected; 1:1 model
Method: as §1

[17] = target: T2, recombinant human TACE catalytic domain …; assay: as above
Method: as §1

[18] = target: T1, recombinant human TACE ectodomain …; assay: competition ELISA: immobilised TACE ectodomain pre-incubated with titrated N-TIMP-3, then probed with D1(A12) FAb [panel B]
[19] = target: T1, recombinant human TACE ectodomain …; assay: SPR (Biacore T100, 37 C): N-TIMP-3 amine-coupled to a CM5 chip, TACE ectodomain injected (traces labelled 5 to 50 nM) [panel C, upper right]
Method: as §1

[20] = target: T2, recombinant human TACE catalytic domain …; assay: SPR (Biacore T100, 37 C): N-TIMP-3 amine-coupled to a CM5 chip, TACE catalytic domain injected (traces labelled 0.5 to 5 nM) [panel C, upper left]
Method: as §1

T1 sequence (P78536 215-651): as above
T2 sequence (P78536 other isoform, or with tags, fused parts or gaps limits assumed): as the sequence (P78536 other isoform, or with tags, fused parts or gaps limits assumed) above

B1: D1(A12) FAb (Fab, V domains shown)
VH: EVQLVESGGGLVRPGGSLRLSCAASGFTFSSYAMSWVRQAPGKGLEWVSAISGSGGSTYYADSVKGRFTISRDNTKNSLYLQMTSLRADDTAFYYCVKDFGPGYGTGWFDYWGPGTLVTVSA
VL: DIQMTQSPSSLSASVGDRVTITCRASQSISSYLNWYQQKPGKAPKLLIHDASSLQSGVPSRFSGSGSGTDFTLTISSLQPEDFATYYCQQSFSIPLTFGGGTKMDIKR
notes: Expressed in E. coli periplasm, purified on Protein G; also called monovalent D1(A12) human FAb
IC50, cleavage of GST-TNF-α (SDS-PAGE densitometry) [1]: 73.9 nM
ΔIC50 = IC50 Ecto:N-TIMP-3 / IC50 Ecto:D1(A12), QF-peptide assay [1]: 5.75 fold
IC50, cleavage of GST-TNF-α (SDS-PAGE densitometry) [2]: 125 nM
ΔIC50 = IC50 Cat:N-TIMP-3 / IC50 Cat:D1(A12), QF-peptide assay [2]: 1.35 fold
EC50 [3]: 0.92 nM
EC50 [4]: 11.1 nM
Delta (IC50 ectodomain against IC50 catalytic domain) [5]: 0.8 fold
IC50 (nM), QF-peptide assay [5]: 0.45 nM
IC50 (nM), QF-peptide assay [6]: 0.54 nM
ΔKD (KD Cat/KD Ecto) [7]: 11.3 fold
Kd [8]: 0.461 nM
Kd [9]: 5.21 nM
ΔEC50 (EC50 Cat/EC50 Ecto) [10]: 12.1 fold
IC50 (read off the curve) [11]: ~10 nM
koff [12]: 0.00024 s⁻¹
kon [12]: 530000 M⁻¹ s⁻¹
koff [13]: 0.00058 s⁻¹
kon [13]: 110000 M⁻¹ s⁻¹

B2: D1(A12) human IgG1 (antibody, V domains shown)
VH: EVQLVESGGGLVRPGGSLRLSCAASGFTFSSYAMSWVRQAPGKGLEWVSAISGSGGSTYYADSVKGRFTISRDNTKNSLYLQMTSLRADDTAFYYCVKDFGPGYGTGWFDYWGPGTLVTVSA
VL: DIQMTQSPSSLSASVGDRVTITCRASQSISSYLNWYQQKPGKAPKLLIHDASSLQSGVPSRFSGSGSGTDFTLTISSLQPEDFATYYCQQSFSIPLTFGGGTKMDIKR
Delta (IC50 N-TIMP-3 against IC50 D1(A12) IgG1), Amphiregulin, PC3 (cell surface TACE): 5.7 fold
Delta (IC50 N-TIMP-3 against IC50 D1(A12) IgG1), HB-EGF-AP, HeLa (cell surface TACE): 6 fold
Delta (IC50 N-TIMP-3 against IC50 D1(A12) IgG1), TGF-α, IGROV-1 (cell surface TACE): 4.7 fold
Delta (IC50 N-TIMP-3 against IC50 D1(A12) IgG1), TNF-α, TOV21G (cell surface TACE): 4.3 fold
Delta (IC50 N-TIMP-3 against IC50 D1(A12) IgG1), TNFR1a, IGROV-1 (cell surface TACE): 4.7 fold
Delta, mean value of the five cell shedding assays (cell surface TACE): 5.1 fold
IC50 (nM), PMA-stimulated shedding of Amphiregulin from PC3 cells (cell surface TACE): 9.3 nM
IC50 (nM), PMA-stimulated shedding of HB-EGF-AP from HeLa cells (cell surface TACE): 7.9 nM
IC50 (nM), PMA-stimulated shedding of TGF-α from IGROV-1 cells (cell surface TACE): 9.4 nM
IC50 (nM), PMA-stimulated shedding of TNF-α from TOV21G cells (cell surface TACE): 11.2 nM
IC50 (nM), mean value of the five cell shedding assays (cell surface TACE): 9.6 nM
IC50 (nM), shedding of TNFR1a from IGROV-1 cells (cell surface TACE): 10.4 nM

B3: D1(A12) scFv (scFv, part only; not given: linker and tags, not shown: small tags and cut ends)
scFv, part: EVQLVESGGGLVRPGGSLRLSCAASGFTFSSYAMSWVRQAPGKGLEWVSAISGSGGSTYYADSVKGRFTISRDNTKNSLYLQMTSLRADDTAFYYCVKDFGPGYGTGWFDYWGPGTLVTVSASDIQMTQSPSSLSASVGDRVTITCRASQSISSYLNWYQQKPGKAPKLLIHDASSLQSGVPSRFSGSGSGTDFTLTISSLQPEDFATYYCQQSFSIPLTFGGGTKMDIKR
IC50, solution-phase QF-peptide assay (wild-type scFv) [14]: 2.3 nM
IC50, solution-phase QF-peptide assay (wild-type scFv) [15]: 0.89 nM

B4: N-TIMP-3 (other, UniProt P35625 24-144, looked up)
chain: CTCSPSHPQDAFCNSDIVIRAKVVGKKLVKEGPFGTLVYTIKQMKMYRGFTKMPHVQYIHTEASESLCGLKLEVNKYQYLLTGRVYDGKMYTGLCNFVERWDQLTLSQRKGLNYRYHLGCN
notes: domain: N-terminal fragment; also called amino-terminal domain of TIMP-3
IC50, quenched-fluorescent (QF) peptide cleavage assay [1]: 3.2 nM
Delta (IC50 ectodomain against IC50 catalytic domain) [5]: 5.2 fold
IC50 (nM), QF-peptide assay [5]: 3.1 nM
IC50 (nM), QF-peptide assay [6]: 0.6 nM
IC50 (nM), PMA-stimulated shedding of Amphiregulin from PC3 cells (cell surface TACE): 53.3 nM
IC50 (nM), PMA-stimulated shedding of HB-EGF-AP from HeLa cells (cell surface TACE): 47.3 nM
IC50 (nM), PMA-stimulated shedding of TGF-α from IGROV-1 cells (cell surface TACE): 44.5 nM
IC50 (nM), PMA-stimulated shedding of TNF-α from TOV21G cells (cell surface TACE): 48.5 nM
IC50 (nM), mean value of the five cell shedding assays (cell surface TACE): 48.6 nM
IC50 (nM), shedding of TNFR1a from IGROV-1 cells (cell surface TACE): 49.5 nM
ΔKD (KD Cat/KD Ecto) [7]: 0.03 fold
Kd [16]: 7.22 nM
Kd [17]: 0.211 nM
IC50 (read off the curve) [18]: ~20 nM
koff [19]: 5.2e-05 s⁻¹
kon [19]: 7200 M⁻¹ s⁻¹
koff [20]: 2.1e-05 s⁻¹
kon [20]: 100000 M⁻¹ s⁻¹
